Test [1] concerns the target DR3-Fc (UniProt Q93038). The test is described as follows: ELISA. A general note: ELISA stands for enzyme-linked immunosorbent assay.
Test [2] deals with T1, DcR3-Fc (UniProt O95407 30-300).
T1 sequence (looked up): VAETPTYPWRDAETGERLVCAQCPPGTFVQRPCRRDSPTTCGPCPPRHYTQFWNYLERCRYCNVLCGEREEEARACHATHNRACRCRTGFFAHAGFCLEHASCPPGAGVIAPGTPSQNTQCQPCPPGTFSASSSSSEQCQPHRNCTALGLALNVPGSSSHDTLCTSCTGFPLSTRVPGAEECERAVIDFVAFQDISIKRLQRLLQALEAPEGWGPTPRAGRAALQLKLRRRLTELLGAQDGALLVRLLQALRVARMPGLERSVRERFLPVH
The test is described as follows: ELISA.

Sequence of DR3-Fc (Q93038 25-199): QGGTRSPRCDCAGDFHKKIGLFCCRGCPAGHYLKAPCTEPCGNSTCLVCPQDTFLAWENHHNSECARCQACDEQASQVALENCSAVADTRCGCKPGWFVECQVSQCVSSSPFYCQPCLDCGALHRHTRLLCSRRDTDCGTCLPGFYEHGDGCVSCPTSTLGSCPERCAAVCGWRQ

For the molecule TL1A-R32A (ligand), the decrease in binding against wild-type TL1A in test [1] came to 50%.

B1: human TL1A (extracellular domain, recombinant) (ligand, UniProt O95150 57-251, looked up)
chain: SQLRAQGEACVQFQALKGQEFAPSHQQVYAPLRADGDKPRAHLTVVRQTPTQHFKNQFPALHWEHELGLAFTKNRMNYTNKFLLIPESGDYFIYSQVTFRGMTSECSEIRQAGRPNKPDSITVVITKVTDSYPEPTQLLMGTKSVCEVGSNWFQPIYLGAMFSLQEGDKLMVNVSDISLVDYTKEDKTFFGAFLL
modifications: biotin (single-site biotinylated, site not stated) in the competition ELISA
Consider B1, for which the binding result in test [2] is on record as “binds”.

Values taken from publication PMC5973687 (mAbs, 2018).
